Experimental findings from PMC8270960, “Native flagellar MS ring is formed by 34 subunits with 23-fold and 11-fold subsymmetries” (Nature Communications, 2021) are described below.

B1: FliG of the C ring of the native basal body (wild-type, CCW motor) (natural protein)
chain: MSNLSGTDKSVILLMTIGEDRAAEVFKHLSTREVQALSTAMANVRQISNKQLTDVLSEFEQEAEQFAALNINANEYLRSVLVKALGEERASSLLEDILETRDTTSGIETLNFMEPQSAADLIRDEHPQIIATILVHLKRSQAADILALFDERLRHDVMLRIATFGGVQPAALAELTEVLNGLLDGQNLKRSKMGGVRTAAEIINLMKTQQEEAVITAVREFDGELAQKIIDEMFLFENLVDVDDRSIQRLLQEVDSESLLIALKGAEPPLREKFLRNMSQRAADILRDDLANRGPVRLSQVENEQKAILLIVRRLAETGEMVIGSGEDTYV
notes: source: endogenous, basal body purified from Salmonella HK1003 (sucrose density gradient)
B2: FliF_(1-503) (domain or fragment)
chain: MSATASTATQPKPLEWLNRLRANPRIPLIVAGSAAVAIVVAMVLWAKTPDYRTLFSNLSDQDGGAIVAQLTQMNIPYRFANGSGAIEVPADKVHELRLRLAQQGLPKGGAVGFELLDQEKFGISQFSEQVNYQRALEGELARTIETLGPVKSARVHLAMPKPSLFVREQKSPSASVTVTLEPGRALDEGQISAVVHLVSSAVAGLPPGNVTLVDQSGHLLTQSNTSGRDLNDAQLKFANDVESRIQRRIEAILSPIVGNGNVHAQVTAQLDFANKEQTEEHYSPNGDASKATLRSRQLNISEQVGAGYPGGVPGALSNQPAPPNEAPIATPPTNQQNAQNTPQTSTSTNSNSAGPRSTQRNETSNYEVDRTIRHTKMNVGDIERLSVAVVVNYKTLADGKPLPLTADQMKQIEDLTREAMGFSDKRGDTLNVVNSPFSAVDNTGGELPFWQQQSFIDQLLAAGRWLLVLVVAWILWRKAVRPQLTRRVEEAKAAQEQAQVRQE
notes: also called C-terminally-truncated FliF fragment with 57 residues truncated; copies: 33
B3: FliF of the native flagellar basal body (native MS ring) (natural protein)
chain: MSATASTATQPKPLEWLNRLRANPRIPLIVAGSAAVAIVVAMVLWAKTPDYRTLFSNLSDQDGGAIVAQLTQMNIPYRFANGSGAIEVPADKVHELRLRLAQQGLPKGGAVGFELLDQEKFGISQFSEQVNYQRALEGELARTIETLGPVKSARVHLAMPKPSLFVREQKSPSASVTVTLEPGRALDEGQISAVVHLVSSAVAGLPPGNVTLVDQSGHLLTQSNTSGRDLNDAQLKFANDVESRIQRRIEAILSPIVGNGNVHAQVTAQLDFANKEQTEEHYSPNGDASKATLRSRQLNISEQVGAGYPGGVPGALSNQPAPPNEAPIATPPTNQQNAQNTPQTSTSTNSNSAGPRSTQRNETSNYEVDRTIRHTKMNVGDIERLSVAVVVNYKTLADGKPLPLTADQMKQIEDLTREAMGFSDKRGDTLNVVNSPFSAVDNTGGELPFWQQQSFIDQLLAAGRWLLVLVVAWILWRKAVRPQLTRRVEEAKAAQEQAQVRQETEEAVEVRLSKDEQLQQRRANQRLGAEVMSQRIREMSDNDPRVVALVIRQWMSNDHE
notes: source: endogenous, basal body purified from Salmonella HK1003 (sucrose density gradient); copies: 34
B4: FliF(L253R), overexpressed in E. coli (natural protein)
chain: B3 chain with L253R
notes: source: E. coli, overexpressed, MS rings purified
B5: full-length Salmonella FliF (MS ring, dataset 2, from pKOT105) (natural protein)
chain: B3 chain
notes: also called FliF overexpressed from another construct; FliF ring dataset 2; source: E. coli BL21 (DE3) carrying pKOT105, MS ring purified from the membrane fraction (sucrose gradient, LMNG); copies: 34
B6: full-length Salmonella FliF (MS ring, dataset 1, from pKOT112) (natural protein)
chain: B3 chain
notes: also called MS ring formed by full-length FliF; FliF ring dataset 1; source: E. coli BL21 (DE3) carrying pKOT112, MS ring purified from the membrane fraction (sucrose gradient, LMNG); copies: 34
B7: FliF(V266R), overexpressed in E. coli (natural protein)
chain: B3 chain with V266R
notes: as for B4
B8: FliF(L253A), overexpressed in E. coli (natural protein)
chain: B3 chain with L253A
notes: as for B4
B9: FliF(I252R), overexpressed in E. coli (natural protein)
chain: B3 chain with I252R
notes: as for B4
B10: FliF(I252A), overexpressed in E. coli (natural protein)
chain: B3 chain with I252A
notes: as for B4
B11: FliF(V266A), overexpressed in E. coli (natural protein)
chain: B3 chain with V266A
notes: as for B4

Substitutions are numbered along the chain they refer to. Names may count otherwise. “And” between values parts separate entries of the source, which are not always exact repeats. Equal entries are not always repeated.

The target of series [1] is FliG ΔPAA of the C ring of the CW-locked basal body (Salmonella enterica serovar Typhimurium (in TM022)) (UniProt P0A1J9). Nature of the series: cryo-EM structure; end-on view cryoEM images of the C ring of purified wild-type (CCW) and CW mutant basal bodies; rotational symmetry of single particles by autocorrelation and Fourier transformation (98 and 75 particles).
Series [2] addresses B3. Nature of the series: cryo-EM structure; 2D class averages of end-on views of the basal body (rivet) purified from Salmonella HK1003; rotational symmetry by autocorrelation and Fourier transformation; assembly formed in cells, purified as a whole. To be noted: both partners purified.
Series [3] deals with the molecule itself. Nature of the series: cryo-EM structure; rings of FliF_(1-503) and FliF_(1-456) in Buffer S with 0.1% Triton-X100; 3D classification and reconstruction with C1 symmetry.
Series [4] deals with the molecule itself. Nature of the series: cryo-EM structure; 2D class averages of end-on views of the basal body (rivet) purified from Salmonella HK1003; rotational symmetry by autocorrelation and Fourier transformation; assembly formed in cells, purified as a whole.
Series [5] concerns the molecule itself. Nature of the series: negative-stain EM; MS rings purified from E. coli cells overexpressing mutant variants of FliF, observed by negative staining EM.
Series [6] concerns the molecule itself. Nature of the series: cryo-EM structure; MS ring of full-length FliF (dataset 2, pKOT105); 3D refinement with C1, C11 and C34 symmetry (12, 9.0 and 7.4 Å).
Series [7] concerns the molecule itself. Nature of the series: cryo-EM structure; MS ring of full-length FliF (dataset 1, pKOT112) in Buffer S with 0.05% LMNG; 2D classes and 3D refinement with C34 symmetry, 3.7 Å.

With “FliG ΔPAA of the C ring of the CW-locked basal body (from UniProt P0A1J9 1-331) (natural protein)”, the stoichiometry N in series [1] is 33 -fold to 36 -fold (2×) and 34 -fold.
For B1, the binding result in series [2] was “binds”.
Turning to B2, the “stoichiometry N” value in series [3] is 33 -fold.
Take B3: the “stoichiometry N” value in series [4] is 34 subunits.
As for B4, the binding result in series [5] is listed as “binds”.
On to B5, for which the “stoichiometry N” value in series [6] came to 34 subunits.
Regarding B6, the “stoichiometry N” value in series [7] came out at 34 subunits.
For B7, in series [5], the binding result was “binds”.
For the molecule B8, the binding result in series [5] is listed as “binds”.
In the case of B9, in series [5], the binding result was “binds”.
As to B10, the binding result in series [5] was “binds”.
Same read-out and setting: the result for B11 reads “binds”.

The stoichiometry N is the number of molecules, sites or subunits per partner or assembly.
